Experimental data from the RNAGym collection of RNA variant scans (doi:10.1093/molbev/msab373).

B1: Azoarcus group I ribozyme (parent)
chain: GUGCCUUGCGCCGGGAAACCACGCAAGGGAUGGUGUCAAAUUCGGCGAAACCUAAGCGCCCGCCCGGGCGUAUGGCAACGCCGAGCCAAGCUUCGGCGCCUGCGCCGAUGAAGGUGUAGAGACUAGACGGCACCCACCUAAGGCAAACGCUAUGGUGAAGGCAUAGUCCAGGGAGUGGCGAAAGUCACACAAACCGG

Variants of: B1
Assay: reverse-splicing fitness (ratio to wild type); higher = more active; in vitro selection; Mg2+ level not given
Summary of the method: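 An in vitro group I ribozyme library with randomized positions was T7-transcribed and gel-purified. In triplicate, 10 pmol RNA in EPPS pH 7.5 was reacted with 50 pmoles of a 30-nt RNA substrate for 1 h at 37 °C across several added MgCl2 levels (1–48 mM), then stopped with EDTA. Products were reverse transcribed from a substrate-complementary primer, PCR-amplified and sequenced (HiSeq 4000). Fitness is a variant's read proportion after selection over that before, normalised to wild type.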

In order of falling reverse-splicing fitness:
1. C82A A111C A120C A145C C150U C169G U176A  0.0269
2. C82A A111C A120C A145C C169G U176A  0.0258
3. C82A A111C A120C A145G  0.0258
4. C82A A111C A120G A145C C150A C169G U176A  0.0253
5. C82A A111C A120C A145C  0.0248
6. C82A A111C A120C A145U  0.0241
7. C82A A111C A120C A145G C150U  0.0241
8. C82A A111C A120C A145G C150A C169G U176C  0.0238
9. C82A A111C A120C C169G U176C  0.0233
10. C82A A111C A120C U176C  0.0216
11. C82A A111C A120C A145C C169G U176C  0.0213
12. C82A A111C A120C A145G C150U U176C  0.0208
13. C82A A111C A120C C150A C169G U176C  0.0202
14. C82A A111C A120C C150A U176C  0.0178
15. C82A A111C A120C A145C C150U C169G U176C  0.0178
16. C82A A111C A120C C169G U176A  0.0174
17. C82A A111C A120C A145G C150A C169G U176A  0.0172
18. C82A A111C A120C C150A C169G U176A  0.0168
19. C82A A111C A120C A145G C150U C169G U176C  0.0166
20. C82A A111C A120C A145U C169A U176C  0.0162
21. C82A A111C A120G A145G  0.0153
22. C82A A111C A120C A145U C150U C169A U176A  0.0153
23. C82A A111C A120G A145C C150A C169G U176C  0.0145
24. C82A A111C A120G A145C C150A C169U U176A  0.0142
25. C82A A111C A120C A145C C169U U176C  0.0141
26. C82A A111C A120G A145C C169U U176A  0.0138
27. C82A A111C A120C U176A  0.0134
28. C82A A111C A120G A145C U176C  0.0134
29. C82A A111C A120C A145U C169A U176A  0.0132
30. C82A A111C A120G A145C  0.0129
31. C82A A111C A120C A145U C150U C169A U176C  0.0129
32. C82A A111C A120C A145G C150U C169U U176C  0.0128
33. C82A A111C A120C A145G C150U C169G U176A  0.0127
34. C82A A111C A120C A145C C169U U176A  0.0123
35. C82A A111C A120G A145C U176A  0.0123
36. C82A A111C A120C A145G C150U C169U U176A  0.0121
37. C82A A111C A120C A145G C150U U176A  0.0119
38. C82A A111C A120C C150A U176A  0.0118
39. C82A A111C A120C A145C C150G C169U U176C  0.0112
40. C82A A111C A120C A145G C150A  0.0108
41. C82A A111C A120C A145C C150U C169U  0.0108
42. C82A A111C A120C A145C C150U C169A  0.0105
43. C82A A111C A120G A145C C150G C169U U176C  0.0101
44. C82A A111C A120G A145C C169A U176A  0.00969
45. C82A A111C A120G A145C C169U U176C  0.00921
46. C82A A111C A120C A145G C150G C169U  0.00903
47. C82A A111C A120C A145G C150G C169A  0.00894
48. C82A A111C A120G A145C C150A C169U U176C  0.00893
49. C82A A111C A120G A145C C150G C169U U176A  0.0089
50. C82A A111C A120C C150A C169G U176G  0.00878
51. C82A A111C A120C C150G U176C  0.00863
52. C82A A111C A120C A145G C150U U176G  0.00852
53. C82A A111C A120C A145G C150G  0.00852
54. C82A A111C A120C A145G C150A C169G U176G  0.00821
55. C82A A111C A120C A145U C169A U176G  0.00807
56. C82A A111C A120C A145G C150G C169G  0.00793
57. C82A A111C A120C C150A U176G  0.00759
58. C82A A111C A120C A145C C150G C169U U176A  0.00758
59. C82A A111C A120G A145C C150G C169A  0.00757
60. C82A A111C A120C C169G U176G  0.00756
61. C82A A111C A120C A145C C150G U176C  0.00754
62. C82A A111C A120C A145U C150U C169A U176G  0.00742
63. C82A A111C A120C A145C C150U C169G  0.00741
64. C82A A111C A120C A145C C169G U176G  0.0074
65. C82A A111C A120G A145C C169A U176C  0.00724
66. C82A A111C A120C U176G  0.00722
67. C82A A111C A120C A145G C150U C169U U176G  0.00717
68. C82A A111C A120C A145G C150U C169G U176G  0.00711
69. C82A A111C A120G A145C C150G C169G  0.00683
70. C82A A111C A120G A145C C150G C169U  0.00668
71. C82A A111C A120C A145C C150U C169G U176G  0.00659
72. C82A A111C A120C A145C C169U U176G  0.00595
73. C82A A111C A120C A145C C150G C169U U176G  0.00564
74. C82A A111C A120C C150G U176A  0.00563
75. C82A A111C A120G A145C C150A C169G U176G  0.00557
76. C82A A111C A120G A145C C150G C169U U176G  0.00551
77. C82A A111C A120G A145C C150A C169U U176G  0.00495
78. C82A A111C A120G A145C U176G  0.00486
79. C82A A111C A120G A145C C169U U176G  0.00467
80. C82A A111C A120G A145C C169A U176G  0.0044
81. C82A A111C A120C A145C C150G U176A  0.00409
82. C82A A111C A120C C150G U176G  0.00353
83. C82A A111C A120C A145C C150G U176G  0.0029
